The labels stand for the following.
B1: GRLBD(F602S) (domain or fragment, UniProt P04150 521-777, looked up)
chain: VPATLPQLTPTLVSLLEVIEPEVLYAGYDSSVPDSTWRIMTTLNMLGGRQVIAAVKWAKAIPGFRNLHLDDQMTLLQYSWMSLMAFALGWRSYRQSSANLLCFAPDLIINEQRMTLPCMYDQCKHMLYVSSELHRLQVSYEEYLCMKTLLLLSSVPKDGLKSQELFDEIRMTYIKELGKAIVKREGNSSQNWQRFYQLTKLLDSMHEVVENLLNYCFQTFLDKTMSIEFPEMLAEIITNQIPKYSNGNIKKLLFHQK
B2: MBP-GRLBD(F602S) (domain or fragment, UniProt P04150 521-777, looked up)
chain: B1 chain
B3: Human p23 (natural protein, UniProt Q15185 1-160, looked up)
chain: MQPASAKWYDRRDYVFIEFCVEDSKDVNVNFEKSKLTFSCLGGSDNFKHLNEIDLFHCIDPNDSKHKRTDRSILCCLRKGESGQSWPRLTKERAKLNWLSVDFNNWKDWEDDSDEDMSNFDRFSEMMNNMGGDEDVDLPEVDGADDDSQDSDDEKMPDLE

The target of experiment [1] is T1, Human Hsp90α (human, UniProt P07900 1-732). The experiment is described as follows: pull-down.
Experiment [2] concerns the target Human HOP (human, UniProt P31948 1-543). Kind of experiment: pull-down.
The target in experiment [3] is Hsp90(D93N) (human, UniProt P07900 1-732, D93N). The experiment is described as follows: pull-down.
Experiment [4] concerns the target Hsp90(E47A) (human, UniProt P07900 1-732, E47A). Kind of experiment: pull-down.
Experiment [5] concerns the target T1, Human Hsp90α. The experiment is described as follows: cryo-EM structure.
For experiment [6], the target named is B1. Kind of experiment: pull-down.

On to B1, for which the binding result in experiment [1], in experiment [2], in experiment [3] and in experiment [4] was “binds” throughout.

With B2, the binding result in experiment [5] is “binds”.

With B3, the binding result in experiment [6] and in experiment [1] was “binds” in each case.

(Values after PMC4087167 (Cell, 2014).)
